# According to patent US20070224620A1 (PROMEGA, published 2007):
# B1: HaloTag (HT) alone (enzyme, Rhodococcus rhodochrous, UniProt P0A3G2 1-293, looked up)
# chain: MSEIGTGFPFDPHYVEVLGERMHYVDVGPRDGTPVLFLHGNPTSSYLWRNIIPHVAPSHRCIAPDLIGMGKSDKPDLDYFFDDHVRYLDAFIEALGLEEVVLVIHDWGSALGFHWAKRNPERVKGIACMEFIRPIPTWDEWPEFARETFQAFRTADVGRELIIDQNAFIEGALPMGVVRPLTEVEMDHYREPFLKPVDREPLWRFPNELPIAGEPANIVALVEAYMNWLHQSPVPKLLFWGTPGVLIPPAEAARLAESLPNCKTVDIGPGLFLLQEDNPDLIGSEIARWLPAL
# notes: Control bait without a fused partner, covalently captured on HaloLink resin; also called mutant dehalogenase protein
# Columns and labels:
# GST-cFos = biological target: T1, GST-cFos (UniProt P01100 1-380, fluorescently labeled using Lys-tRNA with FluoroTect Green (labelled lysines, positions not stated)); test: HaloLink resin pull-down, lane 3: HT alone as bait, no crosslinker; release of fluorescent prey read on gel
# T1 construct: N-terminal GST fusion expressed in rabbit reticulocyte lysate; also called Prey; not shown: GST, N-terminal fusion partner encoded by Flexi vector pFN2A (Promega)
# T1 sequence (P01100 whole entry, the tested form may be a part): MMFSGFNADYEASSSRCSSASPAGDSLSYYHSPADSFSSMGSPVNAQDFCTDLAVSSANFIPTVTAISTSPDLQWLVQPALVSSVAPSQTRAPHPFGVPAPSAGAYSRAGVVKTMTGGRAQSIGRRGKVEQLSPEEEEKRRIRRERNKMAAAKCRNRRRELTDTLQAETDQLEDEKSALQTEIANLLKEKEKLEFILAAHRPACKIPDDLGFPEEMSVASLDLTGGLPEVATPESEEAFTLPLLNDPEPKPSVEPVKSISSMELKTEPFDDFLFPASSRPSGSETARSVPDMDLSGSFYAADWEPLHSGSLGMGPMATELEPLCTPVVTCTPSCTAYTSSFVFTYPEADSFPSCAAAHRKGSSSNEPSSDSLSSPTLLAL
# HaloTag (HT) alone = biological target: B1; test: HaloLink resin pull-down, lane 1: HT alone as bait, 2 uM rapamycin, no DTTSP; release of fluorescent prey read on gel; text: showed no background binding of Prey
# Description: Remove final wash solution and add protein-protein crosslinked material to resin. Incubate at 22° C. for one hour. Wash resin 5×1 mL with 1×TBS+0.05% IGEPAL as described above. Remove final wash. At this point, the crosslinked protein-protein complex has been covalently captured and purified on the resin and can be resuspended in the desired buffer. In samples treated with the crosslinker DTTSP, resupend resin in 1×SDS Loading buffer containing 5 mM β-Me and boil at 95° C. for 5 minutes to reverse the protein-protein crosslinks. Analyse samples using SDS gel electrophoresis.
binding result (GST-cFos),binding result (HaloTag (HT) alone),Binder
no binding,–,B1
–,no binding,"GST-Frb (other, fluorescently labeled using Lys-tRNA with FluoroTect Green (labelled lysines, positions not stated), domain: Frb domain of Frap; N-terminal GST fusion expressed in rabbit reticulocyte lysate; linker not described; also called Prey; Frb domain of Frap; not shown: GST, N-terminal fusion partner encoded by Flexi vector pFN2A (Promega)) ILWHEMWHEGLEEASRLYFGERNVKGMFEVLEPLHAMMERGPQTLKETSFNQAYGRDLMEAQEWCRKYMKSGNVKDLTQAWDLYYHVFRRISK"
